One data set deals with Aa4CL_1 (Anthoceros agrestis, UniProt A0A6M6A6J9). As to the kind of experiment: spectrophotometric CoA-ester formation, Michaelis-Menten. The class given is biochemical. Conditions: pH 7.0 potassium phosphate, 40 °C. An excerpt: spectrophotometric CoA-ester formation, Michaelis-Menten on Aa4CL_1
Substrate in data set [1]: CC(C)(COP(=O)(O)OP(=O)(O)OC[C@H]1O[C@@H](n2cnc3c(N)ncnc32)[C@H](O)[C@@H]1OP(=O)(O)O)[C@@H](O)C(=O)NCCC(=O)NCCS
As to the kind of experiment: purified protein. It is filed as biochemical, Anthoceros agrestis. Conditions: pH 7.0 potassium phosphate, 45 °C, co-substrates 4-hydroxybenzoic acid and ATP, MgCl2, 1 mM DTT.

Substrate in data set [2]: Nc1ncnc2c1ncn2[C@@H]1O[C@H](COP(=O)(O)OP(=O)(O)OP(=O)(O)O)[C@@H](O)[C@H]1O
Kind of data set: purified protein. Particulars: pH 7.0 potassium phosphate, 45 °C, co-substrates 4-hydroxybenzoic acid and CoA, MgCl2, 1 mM DTT.

Substrate in data set [3]: O=C(O)c1ccc(O)cc1
Kind of data set: purified protein. Conditions: apparent Km, pH 7.0 potassium phosphate, 45 °C, standard assay […] ATP, […] MgCl2, 500 µM CoA, 1 mM DTT.

Where [4] appears, read: standard assay […] ATP, […] MgCl2, 500 µM CoA, 1 mM DTT.
[5] abbreviates: MgCl2, hydroxycinnamic acid co-substrate not stated.

Chain of Aa4CL_1 (A0A6M6A6J9 entry or part of it): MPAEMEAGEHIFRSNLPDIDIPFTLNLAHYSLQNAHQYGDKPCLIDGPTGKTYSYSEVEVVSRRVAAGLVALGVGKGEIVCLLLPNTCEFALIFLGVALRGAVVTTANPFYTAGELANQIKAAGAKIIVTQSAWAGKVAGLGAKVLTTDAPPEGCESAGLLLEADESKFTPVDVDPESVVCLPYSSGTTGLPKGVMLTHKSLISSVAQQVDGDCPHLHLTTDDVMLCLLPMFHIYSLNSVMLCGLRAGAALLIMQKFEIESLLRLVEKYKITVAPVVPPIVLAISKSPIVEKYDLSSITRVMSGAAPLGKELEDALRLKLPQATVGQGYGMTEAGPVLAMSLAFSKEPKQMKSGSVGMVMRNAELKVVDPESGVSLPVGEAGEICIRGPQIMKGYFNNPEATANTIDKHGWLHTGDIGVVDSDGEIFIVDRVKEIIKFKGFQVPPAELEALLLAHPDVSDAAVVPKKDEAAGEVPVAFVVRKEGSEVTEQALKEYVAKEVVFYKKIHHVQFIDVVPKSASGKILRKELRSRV

In the case of `O=C(O)/C=C/c1ccc(O)c(O)c1` [caffeic acid], the Km (commonly the substrate concentration at which the rate is half of its maximum) on Aa4CL_1 (standard assay […] ATP, […] MgCl2, 500 µM CoA, no DTT) worked out at 15.5 ± 1.9 µM.

Take `O=C(O)/C=C/c1ccc(O)cc1` [4-coumaric acid]: on Aa4CL_1 (setting [4]), the Km came out at 12.8 ± 4 µM.

As to `COc1ccc(/C=C/C(=O)O)cc1O` [isoferulic acid], the Km at Aa4CL_1 (setting [4]) was found to be 9.9 ± 1.8 µM.

`Nc1ncnc2c1ncn2[C@@H]1O[C@H](COP(=O)(O)OP(=O)(O)OP(=O)(O)O)[C@@H](O)[C@H]1O` [ATP]: the Km on Aa4CL_1 (setting [5]) worked out at 227 ± 31.8 µM.

In the case of `CC(C)(COP(=O)(O)OP(=O)(O)OC[C@H]1O[C@@H](n2cnc3c(N)ncnc32)[C@H](O)[C@@H]1OP(=O)(O)O)[C@@H](O)C(=O)NCCC(=O)NCCS` [CoA], the Km on Aa4CL_1 (setting [5]) was 10.2 ± 0.2 µM.

Consider `COc1cc(/C=C/C(=O)O)ccc1O` [ferulic acid], for which, on Aa4CL_1 (setting [4]), the Km is 61.4 ± 21.9 µM.

Take `O=C(O)/C=C/c1ccccc1` [cinnamic acid]: the Km on Aa4CL_1 (setting [4]) was found to be 218 ± 74.7 µM.

B1: Aa4HBCL (Anthoceros agrestis) (protein)
chain: MASLSEPEHIFRSSLPAAAIPNVTVPEYILLNAIRPEDEHRVAVVDASDERQYTYGQTRILVKNVAAGLRNLLGIRKGDVVFVLLPNTAEYFILVLGIMWAGGVYSGGNPYAHPGEIEKQIQDSEAKVVVTDSTYFEKVKQFAHQLPILLTPVSSAAPTDKSVTPNPEGSTSVQRLLEYDGSEYVPPEPISQDDLCALPYSSGTTGLSKGVKLTHRNLLANTTRTCPIPAVPPTPAQLASVKRYVVLGLLPFFHIYGTTGICCSTMRYQGTLVVLPRYDLRLMLAALIKYEVTFTPLVPPIILQMVKSPIVNEFDLSKLKLEGVMTAAAPLPPDIQKAFEARFPGVELRQAYGLTEYSCITLSHVPLGYPRGNAKKGSVGFLIPGTEMKILDPDTGKSLPANRAGEICVRGESTMNGYFKNEEATAATIDEQGWLHTGDVGYIDDDGDVFIVERAKELIKYKGFQVPPAELEAILVAHPLIADAAVIPIPDDEAGELPAACVVLAPNSHLNEEDVIRYVGAKVASYKKVRHVEFVSSIPKSLSGKTLRRVLKDDILKRLKKTENQLI
On to B1, for which, in “purified protein [1]”, the Km came out at 247.8 ± 19.9 µM; the Vmax (commonly the rate approached at saturating substrate) was 1.95 µmol/min/mg; the kcat (in general, the maximal rate divided by the concentration of active sites) stood at 2.2 ± 0.1 s⁻¹; the kcat/Km (usually the second-order rate constant that governs catalysis at low substrate concentration) was 8700 M⁻¹ s⁻¹. In addition, in “purified protein [2]”, the Michaelis-Menten constant (Km) turned out to be 1175.3 ± 135.2 µM, the Vmax came to 1.4 µmol/min/mg, the kcat amounted to 1.6 s⁻¹ and the kcat/Km was found to be 1300 M⁻¹ s⁻¹. Further, in “purified protein [3]”, the Km amounted to 664.2 ± 1.5 µM, the Vmax is 0.99 µmol/min/mg, the kcat is 1.1 s⁻¹ and the kcat/Km stood at 1700 M⁻¹ s⁻¹.

For the origin of these results see article PMC7419483, “Phenolic metabolism in the hornwort Anthoceros agrestis: 4-coumarate CoA ligase and 4-hydroxybenzoate CoA ligase” (Plant Cell Reports, 2020).
